The text below walks through data of patent US20260116960A1 (SHANGHAI HONGCHENG BIOPHARMACEUTICAL, published 2026).

The term EC50 denotes the concentration at which the effect is half-maximal. Read a high EC50 as a need for much substance. By IC50 is commonly meant the point on the concentration scale where inhibition reaches its midpoint. A low value points to greater potency in that assay. As usually defined, the Kd is the equilibrium constant for the complex coming apart. Low readings indicate a tighter complex, high ones a looser complex.

Test [1] concerns the target T1, human PD-1 on the cell surface (human, UniProt Q15116 25-288).
T1 construct: whole, on cells; also called cell surface PD-1
As to the kind of experiment: flow cytometry on activated human T cells (CD3+), PE anti-human IgG Fc. The method, then: Human peripheral blood mononuclear cells (PBMCs, Miaoshun (Shanghai) Biotechnology Co., Ltd., Catalog No.: A19K154025) were rapidly thawed in a 37° C. water bath, resuspended in T cell isolating solution, and counted. After centrifugation at 400 g for 10 minutes, the supernatant was removed and the cells were resuspended to 5×10⁷ cells/mL with T cell separation buffer. T cells were isolated according to the procedure of a T cell isolation kit (Stemcell, Catalog No.: 19051), and the obtained T cells were resuspended in culture medium. The cells were counted using NucleoCounter NC-200 and the T cell density was adjusted to approximately 1×10⁶ cells/mL. Dynabeads containing anti-CD3 and anti-CD28 antibodies (Invitrogen™, Catalog No.: 11132D) and 10 ng/ml hIL-2 (Peprotech, Catalog No.: 200-02) were added and cultured in a 37° C., 5% CO₂ incubator for 3 days. After removing Dynabeads and supernatant, the activated T cells were resuspended in FACS buffer. The cell density was adjusted to about 1×10⁶ cells/mL, and 100 μL of cell solution was added into a 96-well U-bottom plate, 1×10⁵ cells/well. After centrifugation at 500 g for 5 minutes, the supernatant was discarded and 100 μL of the trispecific antibody solution of the present application serially diluted 3-fold with FACS buffer was added in triplicate, with a starting concentration of 200 nM. After mixing, incubated at 4° C. for 60 minutes. After centrifugation and washing three times with FACS buffer, 100 μL/well of PE anti-human IgG Fc (Biolegend, Catalog No.: 366903) was added and incubated at 4° C. for 50 minutes. After washing the plate three times with FACS buffer, 100 μL/well of BV421 anti-human CD3 antibody (OKT3) (Biolegend, Catalog No.: 317344) was added and incubated at 4° C. for 50 minutes. After washing the plate three times with FACS buffer, 70 μL/well of PBS solution was added to resuspend the cells, and the fluorescent signal on CD3 T cells was detected on a flow cytometer (BD Cellesta). The binding activity was fitted using a four-parameter model, and the EC₅₀ value of each antibody binding to T cells was calculated.
A general note: In flow cytometry, cells or beads pass a laser one at a time.

The target of test [2] is T2, human CTLA-4 on the cell surface (human, UniProt P16410 36-223).
T2 construct: whole, on cells; also called CHO-hCTLA-4 cells; CHOK1-hCTLA4 cells
T2 sequence (P16410 36-223): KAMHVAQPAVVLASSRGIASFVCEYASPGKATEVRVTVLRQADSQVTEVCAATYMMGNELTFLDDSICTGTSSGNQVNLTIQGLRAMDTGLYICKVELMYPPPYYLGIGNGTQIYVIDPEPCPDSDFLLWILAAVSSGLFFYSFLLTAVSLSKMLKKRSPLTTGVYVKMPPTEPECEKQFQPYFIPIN
As to the kind of experiment: flow cytometry competition, 293T-hPD-1-hCTLA-4 cells (PD-1 co-expressed), biotin-human CD80. The method, then:
PD-1 and CTLA-4 are co-expressed on functionally exhausted T cells in the tumor microenvironment, and the expression level of PD-1 is higher than that of CTLA-4. […] 200 μL of the cells were added to a 96-well U-bottom plate, approximately 1.4×10⁵ cells/well. After centrifugation at 300 g for 5 minutes, the supernatant was discarded. […] After washing three times with FACS buffer, 100 μL/well of 1:800 diluted PE Streptavidin was added and incubated at 4° C. for 50 min. After washing three times with FACS buffer, 150 μL/well of PBS was added to resuspend the cells, and the fluorescence signal was detected on a flow cytometer (BECKMAN COULTER cytoFLEX). The binding activity was fitted using a four-parameter model, and the IC₅₀ value of the blocking activity of each antibody was calculated.

The target of test [3] is T3, human VEGF165-his protein (Acro, Catalog No. VE5-H5248) (human, UniProt P15692-4 27-191).
T3 construct: Bought protein; also called hVEGF165-His; VEGFA; not shown: his tag
T3 sequence (P15692 other isoform, or with tags, fused parts or gaps limits assumed): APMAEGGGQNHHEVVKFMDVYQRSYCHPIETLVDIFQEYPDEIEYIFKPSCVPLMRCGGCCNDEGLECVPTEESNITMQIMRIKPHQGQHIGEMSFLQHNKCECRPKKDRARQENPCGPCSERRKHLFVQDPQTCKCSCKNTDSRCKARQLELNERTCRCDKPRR
As to the kind of experiment: ELISA, plate coated with human VEGF165-his. The method, then:
(§1) ELISA was used to determine the activity of the trispecific antibodies binding to the PD-1 protein: 1 μg/mL human PD-1 protein (Acro, Catalog No.: PD1-H5221) was used to coat a high-adsorption 96-well ELISA plate and incubated at 4° C. overnight. On the next day, the plate was washed three times with PBST solution and blocked with 1% BSA-PBS solution at 37° C. for 1 hour. At the same time, 3-fold gradient dilutions of the antibody were prepared with 1% BSA-PBS solution, with a starting concentration of 10 nM. The antibodies of each gradient concentration were added to the blocked 96-well ELISA plate at 100 µL/well in triplicate and incubated at 37° C. for 1 hour. The plate was then washed three times with 0.05% PBST solution, and 100 μL/well of HRP-labeled secondary antibody (Sigma, Catalog No.: A0170) diluted at 1:5000 was added to the ELISA plate and incubated at 37° C. for 1 hour. The plate was washed three times with 0.05% PBST solution and developed with TMB. The absorbance of the 96-well ELISA plate at 450 nm was detected by an ELISA reader. The OD₄₅₀ value was fitted using a four-parameter model to calculate the EC₅₀ value of each antibody binding to PD-1.
The binding activity of the trispecific antibodies to VEGFA protein was detected by ELISA method as described in Section 2.1. The used human VEGF165-his protein was purchased from Acro, Catalog No.: VE5-H5248.
In general terms: ELISA stands for enzyme-linked immunosorbent assay.

Test [4] addresses T4, human CTLA-4 protein (Acro, Catalog No. CT4-H52H9) (human, UniProt P16410 36-161).
T4 construct: Bought protein
As to the kind of experiment: ELISA, plate coated with human CTLA-4 protein.

Test [5] has as its target T1, human PD-1 on the cell surface. As to the kind of experiment: flow cytometry competition, 293T-hPD-1 cells, biotin-human PD-L1. The method, then: 50 μL of antibody solution serially diluted 3-fold in FACS buffer was added in triplicate, with a starting concentration of 200 nM. After mixing, incubated at 4° C. for 60 minutes. After washing three times with FACS buffer, 100 μL/well of 1:800 diluted PE Streptavidin was added and incubated at 4° C. for 50 min. After washing three times with FACS buffer, 150 μL/well of PBS was added to resuspend the cells, and the fluorescence signal was detected on a flow cytometer (BECKMAN COULTER cytoFLEX). The four-parameter model was used to fit the binding activity and the IC₅₀ value of the blocking activity of each antibody was calculated.

Test [6] has as its target T5, human PD-1 protein (Acro, Catalog No. PD1-H5221) (human, UniProt Q15116 25-167).
T5 construct: Bought protein; also called human PD1-his; not shown: his tag
As to the kind of experiment: ELISA, plate coated with human PD-1 protein. The method, then: as §1

In test [7] the target is human PD-1 protein (Acro, PD1-H5257) (human, UniProt Q15116 25-167). As to the kind of experiment: competitive ELISA, PD-1 coated, biotin-PD-L1 as labelled ligand. The method, then: The next day, the plate was washed three times with PBS solution and blocked with 1% BSA-PBS solution at 37° C. for 1 hour. […] 100 μL of the antibody-protein mixture was added to each well of the blocked 96-well ELISA plate and incubated at 37° C. for 1 hour. After washing four times with PBST, 100 μL of Strep-HRP (BD, Catalog No. 554066) diluted 1:5000 was added to each well of the ELISA plate and incubated at 37° C. for 1 hour. After washing 4 times with PBST, TMB was used for color development. The absorbance at 450 nm and 630 nm was detected by a microplate reader, and OD450-OD630 was calculated. The fluorescence intensity was fitted using a four-parameter model, and the IC₅₀ value of the blocking activity of each antibody was calculated.
Sequence of human PD-1 protein (Acro, PD1-H5257) (Q15116 25-167 limits assumed): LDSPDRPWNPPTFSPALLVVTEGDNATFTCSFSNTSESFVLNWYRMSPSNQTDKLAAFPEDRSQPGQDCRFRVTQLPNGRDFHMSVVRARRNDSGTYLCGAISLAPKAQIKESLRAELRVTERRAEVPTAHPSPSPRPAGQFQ

The target in test [8] is T4, human CTLA-4 protein (Acro, Catalog No. …). As to the kind of experiment: BLI (Octet RED96e), antibody on AHC sensor, antigen as analyte 6.25-100 nM, 1:1 model. The method, then: Octet® RED96e (ForteBio) was used to detect the affinity of trispecific antibodies to human PD-1, CTLA-4 and VEGFA. The specific method was as follows: the AHC Sensor was immersed in PBST (PBS containing 0.02% Tween) buffer for 10 minutes to activate the Sensor. The ligand (antibody to be tested) was diluted to 5 μg/mL with PBST buffer. […] The diluted ligand and analyte were added to the corresponding wells at 200 μL/well in triplicate. Program parameter settings: loading: 180 s, association: 180 s, dissociation: 600 s, regeneration: Gly-HCl pH 1.5, 30s, regeneration 3 times. […] Curve fit acceptance criteria: Full R\hat{ }2≥0.95.

Test [9] addresses T2, human CTLA-4 on the cell surface. As to the kind of experiment: flow cytometry, CHO-hCTLA-4 cells, batch FACS#4.
Test [10] has the same target. As to the kind of experiment: flow cytometry, CHO-hCTLA-4 cells, batch FACS#3.

T1 sequence (Q15116 25-288): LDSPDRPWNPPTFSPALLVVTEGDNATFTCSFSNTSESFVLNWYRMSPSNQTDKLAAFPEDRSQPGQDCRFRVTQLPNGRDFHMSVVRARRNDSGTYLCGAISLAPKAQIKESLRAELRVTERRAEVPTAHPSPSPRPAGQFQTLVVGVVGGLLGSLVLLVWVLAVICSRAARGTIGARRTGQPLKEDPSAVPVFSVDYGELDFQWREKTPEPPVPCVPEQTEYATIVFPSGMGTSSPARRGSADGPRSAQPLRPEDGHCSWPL
T4 sequence (P16410 36-161 limits assumed): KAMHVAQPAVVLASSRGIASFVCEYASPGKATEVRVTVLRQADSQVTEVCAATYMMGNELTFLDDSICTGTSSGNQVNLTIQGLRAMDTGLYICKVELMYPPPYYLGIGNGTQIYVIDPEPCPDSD
T5 sequence (Q15116 25-167 limits assumed): as the sequence (Q15116 25-167 limits assumed) above

B1: camrelizumab (antibody, V domains shown)
VH: EVQLVESGGGLVQPGGSLRLSCAASGFTFSSYMMSWVRQAPGKGLEWVATISGGGANTYYPDSVKGRFTISRDNAKNSLYLQMNSLRAEDTAVYYCARQLYYFDYWGQGTTVTVSS
VL: DIQMTQSPSSLSASVGDRVTITCLASQTIGTWLTWYQQKPGKAPKLLIYTATSLADGVPSRFSGSGSGTDFTLTISSLQPEDFATYYCQQVYSIPWTFGGGTKVEIK
In turn, B1 gave a half-maximal effective concentration (EC50) in [1] of 0.473 nM.

B2: HC010-F14 (trispecific antibody, human IgG4 S228P)
heavy 1: EVQLVESGGGLVQPGGSLRLSCAASGFTFSSYGMSWVRQAPGKCLEWVSTISGGGRDTYYPDSVKGRFTISRDNSKNTLYLQMNSLRAEDTAVYYCARQNGITWFADWGQGTLVTVSSGGGGSGGGGSGGGGSGGGGSDIQMTQSPSSLSASVGDRVTITCRASESVDNYGISFMNWYQQKPGKAPKLLIYAASNQGSGVPSRFSGSGSGTDFTLTISSLQPEDFATYYCQQSKEVPWTFGCGTKVEIKGGGGSGGGGSGGGGSGGGGSESKYGPPCPPCPAPEFLGGPSVFLFPPKPKDTLMISRTPEVTCVVVDVSQEDPEVQFNWYVDGVEVHNAKTKPREEQFNSTYRVVSVLTVLHQDWLNGKEYKCKVSNKGLPSSIEKTISKAKGQPREPQVYTLPPCQEEMTKNQVSLWCLVKGFYPSDIAVEWESNGQPENNYKTTPPVLDSDGSFFLYSRLTVDKSRWQEGNVFSCSVMHEALHNHYTQKSLSLSLGAGGGGSGGGGSGGGGSGGGGSEVQLVESGGGLVQPGGSLRLSCAASGYTFTNYGMNWVRQAPGKCLEWVGWINTYTGEPTYAADFKRRFTFSLDTSKSTAYLQMNSLRAEDTAVYYCAKYPHYYGSSHWYFDVWGQGTLVTVSSGGGGSGGGGSGGGGSGGGGSDIQMTQSPSSLSASVGDRVTITCSASQDISNYLNWYQQKPGKAPKVLIYFTSSLHSGVPSRFSGSGSGTDFTLTISSLQPEDFATYYCQQYSTVPWTFGCGTKVEIK
heavy 2: EVQLLESGGGLVQPGGSLRLSCAASGSIFSINHMAWYRQAPGKQRELVAGVNSRGTTNYVDSVKGRFTISRDNSKNTLYLQMNSLRAEDTAVYYCRALGGAVAAWGQGTLVTVSSGGGGSGGGGSGGGGSGGGGSESKYGPPCPPCPAPEFLGGPSVFLFPPKPKDTLMISRTPEVTCVVVDVSQEDPEVQFNWYVDGVEVHNAKTKPREEQFNSTYRVVSVLTVLHQDWLNGKEYKCKVSNKGLPSSIEKTISKAKGQPREPQVCTLPPSQEEMTKNQVSLSCAVKGFYPSDIAVEWESNGQPENNYKTTPPVLDSDGSFFLVSRLTVDKSRWQEGNVFSCSVMHEALHNRFTQKSLSLSLGAGGGGSGGGGSGGGGSGGGGSEVQLVESGGGLVQPGGSLRLSCAASGYTFTNYGMNWVRQAPGKCLEWVGWINTYTGEPTYAADFKRRFTFSLDTSKSTAYLQMNSLRAEDTAVYYCAKYPHYYGSSHWYFDVWGQGTLVTVSSGGGGSGGGGSGGGGSGGGGSDIQMTQSPSSLSASVGDRVTITCSASQDISNYLNWYQQKPGKAPKVLIYFTSSLHSGVPSRFSGSGSGTDFTLTISSLQPEDFATYYCQQYSTVPWTFGCGTKVEIK
notes: also called H010-F14
In the case of B2, the IC50 was 0.116 nM in test [2], greater than 200 nM in test [5] and 2.41 nM in test [7]. The figures for the EC50 in [3], in test [4] and in [6] were 0.096 nM, 0.734 nM and 0.472 nM, respectively.

B3: 202F1 (VHH)
VHH: EVQLLESGGGLVQPGGSLRLSCAASGSIFSINHMAWYRQAPGKQRELVAGVNSRGTTNYVDSVKGRFTISRDNSKNTLYLQMNSLRAEDTAVYYCRALGGAVAAWGQGTLVTVSS
notes: also called anti-CTLA-4 nanobody (202F1)
Molecule B3 yielded a Kd in test [8] of 0.203 nM.

B4: 202F1-hIgG1 (antibody, V domains shown)
VH: B3 VHH
notes: also called anti-CTLA-4 nanobody 202F1 with hIgG1 constant region
With B4, the figures for the EC50 in test [9], in test [4] and in [10] were 1.05 nM, 0.078 nM and 1.71 nM, respectively.

B5: sintilimab (antibody, V domains shown)
VH: QVQLVQSGAEVKKPGSSVKVSCKASGGTFSSYAISWVRQAPGQGLEWMGLIIPMFDTAGYAQKFQGRVAITVDESTSTAYMELSSLRSEDTAVYYCARAEHSSTGTFDYWGQGTLVTVSS
VL: DIQMTQSPSSVSASVGDRVTITCRASQGISSWLAWYQQKPGKAPKLLISAASSLQSGVPSRFSGSGSGTDFTLTISSLQPEDFATYYCQQANHLPFTFGGGTKVEIK
Take B5: in [1], the EC50 amounted to 0.231 nM.
